No end group written: not given here.

This is an account of results in patent publication US20060177452A1 (BURNHAM INSTITUTE FOR MEDICAL RESEARCH, published 2006).

The target of test [1] is EphB4 ectodomain fused to human Fc, carboxy-terminal hexahistidine tag (human). As to the kind of experiment: inhibition of ephrin-B2 AP binding to immobilized EphB4 ectodomain Fc (FIG. 6B).
Test [2] has the same target. As to the kind of experiment: inhibition of ephrin-B2 AP binding to immobilized EphB4 ectodomain Fc.
Test [3] deals with T1, EphB2 ectodomain fused to human Fc, carboxy-terminal hexahistidine tag (human).
T1 chain: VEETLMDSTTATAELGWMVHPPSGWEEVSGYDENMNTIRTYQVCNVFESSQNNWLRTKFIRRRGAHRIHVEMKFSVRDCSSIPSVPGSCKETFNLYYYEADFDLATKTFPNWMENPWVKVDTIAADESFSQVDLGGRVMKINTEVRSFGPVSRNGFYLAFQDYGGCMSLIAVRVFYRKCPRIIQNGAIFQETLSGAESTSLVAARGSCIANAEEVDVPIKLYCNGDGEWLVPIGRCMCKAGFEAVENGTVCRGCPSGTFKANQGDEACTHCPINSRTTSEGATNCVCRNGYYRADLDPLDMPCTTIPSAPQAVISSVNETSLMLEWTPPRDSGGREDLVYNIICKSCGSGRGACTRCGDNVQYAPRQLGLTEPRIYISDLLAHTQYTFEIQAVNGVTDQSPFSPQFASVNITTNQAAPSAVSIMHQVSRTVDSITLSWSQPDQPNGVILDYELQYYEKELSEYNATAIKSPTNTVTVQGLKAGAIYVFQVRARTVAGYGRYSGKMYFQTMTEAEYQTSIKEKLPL
As to the kind of experiment: phage ELISA on immobilized EphB Fc. For orientation: ELISA stands for enzyme-linked immunosorbent assay.

The target in test [4] is T2, EphB4 ectodomain fused to human Fc, carboxy-terminal hexahistidine tag (human).
T2 chain: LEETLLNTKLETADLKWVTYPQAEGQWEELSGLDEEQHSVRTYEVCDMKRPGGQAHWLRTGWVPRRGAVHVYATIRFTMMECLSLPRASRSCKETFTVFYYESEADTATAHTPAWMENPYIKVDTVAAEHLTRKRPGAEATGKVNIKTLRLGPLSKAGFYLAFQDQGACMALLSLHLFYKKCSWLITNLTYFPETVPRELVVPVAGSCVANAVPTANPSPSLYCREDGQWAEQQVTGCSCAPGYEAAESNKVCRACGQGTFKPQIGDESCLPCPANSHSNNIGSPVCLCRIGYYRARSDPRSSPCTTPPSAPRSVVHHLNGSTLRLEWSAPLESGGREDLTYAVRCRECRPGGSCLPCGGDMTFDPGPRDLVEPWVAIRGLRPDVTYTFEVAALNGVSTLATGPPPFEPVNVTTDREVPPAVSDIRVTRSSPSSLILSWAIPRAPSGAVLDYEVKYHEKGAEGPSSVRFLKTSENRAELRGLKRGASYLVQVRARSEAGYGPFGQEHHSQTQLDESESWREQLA
As to the kind of experiment: phage ELISA on immobilized EphB Fc.

The target of test [5] is EphB1 ectodomain fused to human Fc, carboxy-terminal hexahistidine tag (human). As to the kind of experiment: inhibition of ephrin-B2 AP binding to immobilized EphB1 ectodomain Fc; biotinylated peptide.
Test [6] addresses T2, EphB4 ectodomain fused to human Fc, …. As to the kind of experiment: inhibition of ephrin-B2 AP binding to immobilized EphB4 ectodomain Fc; biotinylated peptide.
The target of test [7] is T3, endogenous EphB4 of MCF7 human breast cancer cells (human, UniProt P54760 16-987).
T3 construct: whole, on cells; In pull-downs it stood in cell lysates; also called endogenous EphB4 (MCF-7)
T3 sequence (looked up): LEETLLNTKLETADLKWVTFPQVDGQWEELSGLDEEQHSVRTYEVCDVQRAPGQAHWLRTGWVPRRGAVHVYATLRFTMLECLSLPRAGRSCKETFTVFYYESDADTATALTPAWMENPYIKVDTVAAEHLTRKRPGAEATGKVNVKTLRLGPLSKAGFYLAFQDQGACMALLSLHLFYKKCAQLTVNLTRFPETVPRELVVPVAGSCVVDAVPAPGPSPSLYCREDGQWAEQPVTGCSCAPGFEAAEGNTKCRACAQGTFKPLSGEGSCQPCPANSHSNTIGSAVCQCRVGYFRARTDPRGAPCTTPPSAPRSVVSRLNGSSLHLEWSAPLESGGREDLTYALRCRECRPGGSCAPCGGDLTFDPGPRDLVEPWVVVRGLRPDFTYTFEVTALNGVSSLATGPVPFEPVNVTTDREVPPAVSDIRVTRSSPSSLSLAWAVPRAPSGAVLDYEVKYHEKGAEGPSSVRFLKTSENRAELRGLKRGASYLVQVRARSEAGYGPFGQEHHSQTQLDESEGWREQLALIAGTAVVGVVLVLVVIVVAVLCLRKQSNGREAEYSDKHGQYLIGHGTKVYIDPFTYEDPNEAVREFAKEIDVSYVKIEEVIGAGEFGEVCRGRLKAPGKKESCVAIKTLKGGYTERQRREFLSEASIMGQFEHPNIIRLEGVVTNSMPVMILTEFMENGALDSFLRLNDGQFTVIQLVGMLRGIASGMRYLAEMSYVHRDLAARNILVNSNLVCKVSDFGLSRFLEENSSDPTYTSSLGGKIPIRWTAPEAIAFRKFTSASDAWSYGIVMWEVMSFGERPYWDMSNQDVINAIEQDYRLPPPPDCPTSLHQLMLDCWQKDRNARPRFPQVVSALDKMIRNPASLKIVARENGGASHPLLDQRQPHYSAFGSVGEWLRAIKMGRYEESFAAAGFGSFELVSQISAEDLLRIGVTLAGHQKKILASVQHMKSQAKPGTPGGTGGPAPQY
The experiment in a line: biotinylated TNYL and streptavidin quantum dots, fluorescence microscopy of MCF-7 cells.

The target of test [8] is T1, EphB2 ectodomain fused to human Fc, …. As to the kind of experiment: inhibition of ephrin-B2 AP binding to immobilized EphB2 ectodomain Fc; biotinylated peptide.
Test [9] addresses T2, EphB4 ectodomain fused to human Fc, …. As to the kind of experiment: inhibition of ephrin-B2 AP binding to immobilized EphB4 ectodomain Fc (FIG. 6A).

One may read the IC50 as the concentration at which inhibition is half-maximal. A lower IC50 goes with greater potency. Take ephrin-B2 Fc (Fc fusion): the IC50 in [1] was found to be 9 µM; in test [2], 0.009 µM.

For LPHGPVAAWDA (coat-protein fusion not described), the results for the “% Binding” value in test [3] and in test [4] were 15% and 100%, respectively.

B1: AHTF peptide, synthetic, biotinylated (peptide)
peptide: AHTFPYPHPKPHGSGS
modifications: C-terminal biotin: on the Lys side chain of a GSGSK linker, or N-biotinyl-ethylenediamine after GSGS (which one is not stated)
With B1, the IC50 in test [5] worked out at 150 µM.

In the case of TNYLFSPNGPIAGSGS (also: C-terminal biotin on linker (form not given here), also called biotinylated TNYL) [TNYL peptide, synthetic, biotinylated], the half-maximal inhibitory concentration (IC50) in test [6] was approximately 50 µM. The binding result in test [7] was “binds”.

SGHQLLNKMPN (coat-protein fusion not described): the “% Binding” value in test [4] amounted to 100%.

B2: DHWRI peptide, synthetic, biotinylated (peptide)
peptide: DHWRILPFSLSSGSGS
modifications: also: C-terminal biotin, via GSGSK Lys side chain or biotinyl-ethylenediamine, not settled
The molecule B2 had a 50% inhibitory concentration (IC50) in test [8] of more than 100 µM.

B3: WHWT peptide, synthetic, biotinylated (peptide)
peptide: WHWTIEPFAITSGSGS
modifications: C-terminal biotin: on the Lys side chain of a GSGSK linker, or N-biotinyl-ethylenediamine after GSGS (which one is not stated)
Molecule B3 returned an IC50 in test [8] of more than 100 µM.

B4: DHNH peptide, synthetic, biotinylated (peptide)
peptide: DHNHNLYNPWRLGSGS
modifications: also: C-terminal biotin, via GSGSK Lys side chain or biotinyl-ethylenediamine, not settled
With B4, in test [6], the IC50 is approximately 200 µM.

B5: DALN peptide, synthetic, biotinylated (peptide)
peptide: DALNDWLLFRPWGSGS
modifications: also: C-terminal biotin, via GSGSK Lys side chain or biotinyl-ethylenediamine, not settled
In test [6], B5 yielded an IC50 of more than 100 µM.

B6: SHWPI peptide, synthetic, biotinylated (peptide)
peptide: SHWPISPYSLLSGSGS
modifications: also: C-terminal biotin, via GSGSK Lys side chain or biotinyl-ethylenediamine, not settled
For B6, in [8], the concentration for half-maximal inhibition (IC50) was more than 100 µM.

Regarding TNYLFSPNGPIARAW [TNYL-RAW peptide, non-biotinylated], in test [9], the concentration for half-maximal inhibition (IC50) is approximately 0.015 µM and the “fold lower IC50 than non-biotinylated TNYL” value was 10000 fold.

Molecule NPVIGPIQRAWTGSGS (also: C-terminal biotin on linker (form not given here)) [NPVI peptide, synthetic, biotinylated] displayed a 50% inhibitory concentration (IC50) in test [6] of more than 500 µM.
